Reference: publication PMC3058826 (Nature, 2010)

Target: T1, TRIM24 PHD-Bromo C840W (human, UniProt O15164 824-1006, C840W)
T1 sequence: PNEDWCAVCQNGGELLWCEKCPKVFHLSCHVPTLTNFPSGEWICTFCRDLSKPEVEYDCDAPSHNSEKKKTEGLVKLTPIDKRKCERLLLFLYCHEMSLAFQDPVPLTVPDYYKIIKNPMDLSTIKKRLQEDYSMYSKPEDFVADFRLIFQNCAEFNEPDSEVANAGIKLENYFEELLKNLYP
Assay: ITC

Kd: > 400 µM
Binder: ARTKQTARKSTGGKA [H3(1–15)K4 peptide]
